T1: BRB1 tyrosine kinase substrate peptide
T1 chain: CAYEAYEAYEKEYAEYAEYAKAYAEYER


How the values were obtained:
[1] = molecular target: T1, BRB1 tyrosine kinase substrate peptide
[2] = molecular target: poly-EAY
[3] = molecular target: poly-EY

Row | Protein | Signal to Noise ratio with BRB1 Peptide (TR-FRET kinase assay; kinase 0.5 nM) [1] | Signal to Noise Ratio with BRB1 Peptide (TR-FRET kinase assay; kinase 20 nM) [1] | Signal to Noise ratio with BRB1 Peptide (TR-FRET kinase assay; kinase 0.25 nM) [1] | further results
1 | TIE2 (protein) QLKRANVQRRMAQAFQNVREEPAVQFNSGTLALNRKVKNNPDPTIYPVLDWNDIKFQDVIGEGNFGQVLKARIKKDGLRMDAAIKRMKEYASKDDHRDFAGELEVLCKLGHHPNIINLLGACEHRGYLYLAIEYAPHGNLLDFLRKSRVLETDPAFAIANSTASTLSSQQLLHFAADVARGMDYLSQKQFIHRDLAARNILVGENYVAKIADFGLSRGQEVYVKKTMGRLPVRWMAIESLNYSVYTTNSDVWSYGVLLWEIVSLGGTPYCGMTCAELYEKLPQGYRLEKPLNCDDEVYDLMRQCWREKPYERPSFAQILVSLNRMLEERKTYVNTTLYEKFTYAGIDCSAEEAA | 17.7 | – | – | –
2 | RET (protein) HCYHKFAHKPPISSAEMTFRRPAQAFPVSYSSSGARRPSLDSMENQVSVDAFKILEDPKWEFPRKNLVLGKTLGEGEFGKVVKATAFHLKGRAGYTTVAVKMLKENASPSELRDLLSEFNVLKQVNHPHVIKLYGACSQDGPLLLIVEYAKYGSLRGFLRESRKVGPGYLGSGGSRNSSSLDHPDERALTMGDLISFAWQISQGMQYLAEMKLVHRDLAARNILVAEGRKMKISDFGLSRDVYEEDSYVKRSQGRIPVKWMAIESLFDHIYTTQSDVWSFGVLLWEIVTLGGNPYPGIPPERLFNLLKTGHRMERPDNCSEEMYRLMLQCWKQEPDKRPVFADISKDLEKMMVKRRDYLDLAASTPSDSLIYDDGLSEEETPLVDCNNAPLPRALPSTWIENKLYGMSDPNWPGESPVPLTRADGTNTGFPRYPNDSVYANWMLSPSAAKLMDTFDS | 20.3 | – | – | –
3 | CSK (protein) MSAIQAAWPSGTECIAKYNFHGTAEQDLPFCKGDVLTIVAVTKDPNWYKAKNKVGREGIIPANYVQKREGVKAGTKLSLMPWFHGKITREQAERLLYPPETGLFLVRESTNYPGDYTLCVSCDGKVEHYRIMYHASKLSIDEEVYFENLMQLVEHYTSDADGLCTRLIKPKVMEGTVAAQDEFYRSGWALNMKELKLLQTIGKGEFGDVMLGDYRGNKVAVKCIKNDATAQAFLAEASVMTQLRHSNLVQLLGVIVEEKGGLYIVTEYMAKGSLVDYLRSRGRSVLGGDCLLKFSLDVCEAMEYLEGNNFVHRDLAARNVLVSEDNVAKVSDFGLTKEASSTQDTGKLPVKWTAPEALREKKFSTKSDVWSFGILLWEIYSFGRVPYPRIPLKDVVPRVEKGYKMDAPDGCPPAVYEVMKNCWHLDAAMRPSFLQLREQLEHIKTHELHL | – | 27.2 | – | –
4 | RON (protein) SYWWRRKQLVLPPNLNDLASLDQTAGATPLPILYSGSDYRSGLALPAIDGLDSTTCVHGASFSDSEDESCVPLLRKESIQLRDLDSALLAEVKDVLIPHERVVTHSDRVIGKGHFGVVYHGEYIDQAQNRIQCAIKSLSRITEMQQVEAFLREGLLMRGLNHPNVLALIGIMLPPEGLPHVLLPYMCHGDLLQFIRSPQRNPTVKDLISFGLQVARGMEYLAEQKFVHRDLAARNCMLDESFTVKVADFGLARDILDREYYSVQQHRHARLPVKWMALESLQTYRFTTKSDVWSFGVLLWELLTRGAPPYRHIDPFDLTHFLAQGRRLPQPEYCPDSLYQVMQQCWEADPAVRPTFRVLVGEVEQIVSALLGDHYVQLPATYMNLGPSTSHEMNVRPEQPQFSPMPGNVRRPRPLSEPPRPT | – | – | 3.5 | –
5 | ROR1 (protein) CRNNQKSSSAPVQRQPKHVRGQNVEMSMLNAYKPKSKAKELPLSAVRFMEELGECAFGKIYKGHLYLPGMDHAQLVAIKTLKDYNNPQQWTEFQQEASLMAELHHPNIVCLLGAVTQEQPVCMLFEYINQGDLHEFLIMRSPHSDVGCSSDEDGTVKSSLDHGDFLHIAIQIAAGMEYLSSHFFVHKDLAARNILIGEQLHVKISDLGLSREIYSADYYRVQSKSLLPIRWMPPEAIMYGKFSSDSDIWSFGVVLWEIFSFGLQPYYGFSNQEVIEMVRKRQLLPCSEDCPPRMYSLMTECWNEIPSRRPRFKDIHVRLRSWEGLSSHTSSTTPSGGNATTQTTSLSASPVSNLSNPRYPNYMFPSQGITPQGQIAGFIGPPIPQNQRFIPINGYPIPPGYAAFPAAHYQPTGPPRVIQHCPPPKSRSPSSASGSTSTGHVTSLPSSGSNQEANIPLLPHMSIPNHPGGMGITVFGNKSQKPYKIDSKQASLLGDANIHGHTESMISAEL | – | 1.1 | – | –
6 | BTK (protein) AAVILESIFLKRSQQKKKTSPLNFKKRLFLLTVHKLSYYEYDFERGRRGSKKGSIDVEKITCVETVVPEKNPPPERQIPRRGEESSEMEQISIIERFPYPFQVVYDEGPLYVFSPTEELRKRWIHQLKNVIRYNSDLVQKYHPCFWIDGQYLCCSQTAKNAMGCQILENRNGSLKPGSSHRKTKKPLPPTPEEDQILKKPLPPEPAAAPVSTSELKKVVALYDYMPMNANDLQLRKGDEYFILEESNLPWWRARDKNGQEGYIPSNYVTEAEDSIEMYEWYSKHMTRSQAEQLLKQEGKEGGFIVRDSSKAGKYTVSVFAKSTGDPQGVIRHYVVCSTPQSQYYLAEKHLFSTIPELINYHQHNSAGLISRLKYPVSQQNKNAPSTAGLGYGSWEIDPKDLTFLKELGTGQFGVVKYGKWRGQYDVAIKMIKEGSMSEDEFIEEAKVMMNLSHEKLVQLYGVCTKQRPIFIITEYMANGCLLNYLREMRHRFQTQQLLEMCKDVCEAMEYLESKQFLHRDLAARNCLVNDQGVVKVSDFGLSRYVLDDEYTSSVGSKFPVRWSPPEVLMYSKFSSKSDIWAFGVLMWEIYSLGKMPYERFTNSETAEHIAQGLRLYRPHLASEKVYTIMYSCWHEKADERPTFKILLSNILDVMDEES | – | – | 6.8 | –
7 | EphA4 (protein) SRRRSKYSKAKQEADEEKHLNQGVRTYVDPFTYEDPNQAVREFAKEIDASCIKIEKVIGVGEFGEVCSGRLKVPGKREICVAIKTLKAGYTDKQRRDFLSEASIMGQFDHPNIIHLEGVVTKCKPVMIITEYMENGSLDAFLRKNDGRFTVIQLVGMLRGIGSGMKYLSDMSYVHRDLAARNILVNSNLVCKVSDFGMSRVLEDDPEAAYTTRGGKIPIRWTAPEAIAYRKFTSASDVWSYGIVMWEVMSYGERPYWDMSNQDVIKAIEEGYRLPPPMDCPIALHQLMLDCWQKERSDRPKFGQIVNMLDKLIRNPNSLKRTGTESSRPNTALLDPSSPEFSAVVSVGDWLQAIKMDRYKDNFTAAGYTTLEAVVHVNQEDLARIGITAITHQNKILSSVQAMRTQMQQMHGRMVPV | 31.5 | – | – | Average Signal at 665 nm (TR-FRET kinase assay; kinase 2 nM, read 1 h after adding Eu-PT66 antibody) [1]: 134000; Average Signal at 665 nm (TR-FRET kinase assay; kinase 2 nM, read 18 h after adding Eu-PT66 antibody) [1]: 117000; Average Signal at 665 nm (TR-FRET kinase assay; kinase 2 nM, read 24 h after adding Eu-PT66 antibody) [1]: 116000; Average Signal at 665 nm (TR-FRET kinase assay; kinase 2 nM, read 1 h after adding Eu-PT66 antibody) [2]: 110000; Average Signal at 665 nm (TR-FRET kinase assay; kinase 2 nM, read 18 h after adding Eu-PT66 antibody) [2]: 51400; Average Signal at 665 nm (TR-FRET kinase assay; kinase 2 nM, read 24 h after adding Eu-PT66 antibody) [2]: 45800; Average Signal at 665 nm (TR-FRET kinase assay; kinase 2 nM, read 1 h after adding Eu-PT66 antibody) [3]: 89000; Average Signal at 665 nm (TR-FRET kinase assay; kinase 2 nM, read 18 h after adding Eu-PT66 antibody) [3]: 35000; Average Signal at 665 nm (TR-FRET kinase assay; kinase 2 nM, read 24 h after adding Eu-PT66 antibody) [3]: 30100
8 | ROR2 (protein) VCMCRNKQKASASTPQRRQLMASPSQDMEMPLINQHKQAKLKEISLSAVRFMEELGEDRFGKVYKGHLFGPAPGEQTQAVAIKTLKDKAEGPLREEFRHEAMLRARLQHPNVVCLLGVVTKDQPLSMIFSYCSHGDLHEFLVMRSPHSDVGSTDDDRTVKSALEPPDFVHLVAQIAAGMEYLSSHHVVHKDLATRNVLVYDKLNVKISDLGLFREVYAADYYKLLGNSLLPIRWMAPEAIMYGKFSIDSDIWSYGVVLWEVFSYGLQPYCGYSNQDVVEMIRNRQVLPCPDDCPAWVYALMIECWNEFPSRRPRFKDIHSRLRAWGNLSNYNSSAQTSGASNTTQTSSLSTSPVSNVSNARYVGPKQKAPPFPQPQFIPMKGQIRPMVPPPQLYVPVNGYQPVPAYGAYLPNFYPVQIPMQMAPQQVPPQMVPKPSSHHSGSGSTSTGYVTTAPSNTSMADRAALLSEGADDTQNAPEDGAQSTVQEAEEEEEGSVPETELLGDCDTLQVDEAQVQLEA | – | 1 | – | –
9 | TYRO3 (protein) LRKRRKETRFGQAFDSVMARGEPAVHFRAARSFNRERPERIEATLDSLGISDELKEKLEDVLIPEQQFTLGRMLGKGEFGSVREAQLKQEDGSFVKVAVKMLKADIIASSDIEEFLREAACMKEFDHPHVAKLVGVSLRSRAKGRLPIPMVILPFMKHGDLHAFLLASRIGENPFNLPLQTLIRFMVDIACGMEYLSSRNFIHRDLAARNCMLAEDMTVCVADFGLSRKIYSGDYYRQGCASKLPVKWLALESLADNLYTVQSDVWAFGVTMWEIMTRGQTPYAGIENAEIYNYLIGGNRLKQPPECMEDVYDLMYQCWSADPKQRPSFTCLRMELENILGQLSVLSASQDPLYINIERAEEPTAGGSLELPGRDQPYSGAGDGSGMGAVGGTPSDCRYILTPGGLAEQPGQAEHQPESPLNETQRLLLLQQGLLPHSSC | – | – | 6.1 | –
10 | ROS (protein) HRRLKNQKSAKEGVTVLINEDKELAELRGLAAGVGLANACYAIHTLPTQEEIENLPAFPREKLTLRLLLGSGAFGEVYEGTAVDILGVGSGEIKVAVKTLKKGSTDQEKIEFLKEAHLMSKFNHPNILKQLGVCLLNEPQYIILELMEGGDLLTYLRKARMATFYGPLLTLVDLVDLCVDISKGCVYLERMHFIHRDLAARNCLVSVKDYTSPRIVKIGDFGLARDIYKNDYYRKRGEGLLPVRWMAPESLMDGIFTTQSDVWSFGILIWEILTLGHQPYPAHSNLDVLNYVQTGGRLEPPRNCPDDLWNLMTQCWAQEPDQRPTFHRIQDQLQLFRNFFLNSIYKSRDEANNSGVINESFEGEDGDVICLNSDDIMPVALMETKNREGLNYMVLATECGQGEEKSEGPLGSQESESCGLRKEEKEPHADKDFCQEKQVAYCPSGKPEGLNYACLTHSGYGDGSD | – | – | 24.5 | –

— patent US20100015650
